{
  "source": "patent US20090081211A1",
  "about": "(Genentech, published 2009)",
  "binders": {"B1": {"name": "antibody S77 (YW144.2.43.S77), format in the assay not stated (antibody, V domains shown)", "VH": "EVQLVESGGGLVQPGGSLRLSCAASGFSFTSSSVSWVRQAPGKGLEWVGLIYPYNGFNYYADSVKGRFTISADTSKNTAYLQMNSLRAEDTAVYYCARNALYGSGGYYAMDYWGQGTLVTVSS", "VL": "DIQMTQSPSSLSASVGDRVTITCRASQDVSTAVAWYQQKPGKAPKLLIYSASFLYSGVPSRFSGSGSGTDFTLTISSLQPEDFATYYCQQSYATLPTFEQGTKVEIK", "notes": "also called anti C3b antibody S77"}},
  "target": "T1, human complement C3 (human, UniProt P01024 23-1663)",
  "T1 construct": "also called native C3; pro-molecule C3",
  "T1 sequence (P01024 other isoform, or with tags, fused parts or gaps limits assumed)": "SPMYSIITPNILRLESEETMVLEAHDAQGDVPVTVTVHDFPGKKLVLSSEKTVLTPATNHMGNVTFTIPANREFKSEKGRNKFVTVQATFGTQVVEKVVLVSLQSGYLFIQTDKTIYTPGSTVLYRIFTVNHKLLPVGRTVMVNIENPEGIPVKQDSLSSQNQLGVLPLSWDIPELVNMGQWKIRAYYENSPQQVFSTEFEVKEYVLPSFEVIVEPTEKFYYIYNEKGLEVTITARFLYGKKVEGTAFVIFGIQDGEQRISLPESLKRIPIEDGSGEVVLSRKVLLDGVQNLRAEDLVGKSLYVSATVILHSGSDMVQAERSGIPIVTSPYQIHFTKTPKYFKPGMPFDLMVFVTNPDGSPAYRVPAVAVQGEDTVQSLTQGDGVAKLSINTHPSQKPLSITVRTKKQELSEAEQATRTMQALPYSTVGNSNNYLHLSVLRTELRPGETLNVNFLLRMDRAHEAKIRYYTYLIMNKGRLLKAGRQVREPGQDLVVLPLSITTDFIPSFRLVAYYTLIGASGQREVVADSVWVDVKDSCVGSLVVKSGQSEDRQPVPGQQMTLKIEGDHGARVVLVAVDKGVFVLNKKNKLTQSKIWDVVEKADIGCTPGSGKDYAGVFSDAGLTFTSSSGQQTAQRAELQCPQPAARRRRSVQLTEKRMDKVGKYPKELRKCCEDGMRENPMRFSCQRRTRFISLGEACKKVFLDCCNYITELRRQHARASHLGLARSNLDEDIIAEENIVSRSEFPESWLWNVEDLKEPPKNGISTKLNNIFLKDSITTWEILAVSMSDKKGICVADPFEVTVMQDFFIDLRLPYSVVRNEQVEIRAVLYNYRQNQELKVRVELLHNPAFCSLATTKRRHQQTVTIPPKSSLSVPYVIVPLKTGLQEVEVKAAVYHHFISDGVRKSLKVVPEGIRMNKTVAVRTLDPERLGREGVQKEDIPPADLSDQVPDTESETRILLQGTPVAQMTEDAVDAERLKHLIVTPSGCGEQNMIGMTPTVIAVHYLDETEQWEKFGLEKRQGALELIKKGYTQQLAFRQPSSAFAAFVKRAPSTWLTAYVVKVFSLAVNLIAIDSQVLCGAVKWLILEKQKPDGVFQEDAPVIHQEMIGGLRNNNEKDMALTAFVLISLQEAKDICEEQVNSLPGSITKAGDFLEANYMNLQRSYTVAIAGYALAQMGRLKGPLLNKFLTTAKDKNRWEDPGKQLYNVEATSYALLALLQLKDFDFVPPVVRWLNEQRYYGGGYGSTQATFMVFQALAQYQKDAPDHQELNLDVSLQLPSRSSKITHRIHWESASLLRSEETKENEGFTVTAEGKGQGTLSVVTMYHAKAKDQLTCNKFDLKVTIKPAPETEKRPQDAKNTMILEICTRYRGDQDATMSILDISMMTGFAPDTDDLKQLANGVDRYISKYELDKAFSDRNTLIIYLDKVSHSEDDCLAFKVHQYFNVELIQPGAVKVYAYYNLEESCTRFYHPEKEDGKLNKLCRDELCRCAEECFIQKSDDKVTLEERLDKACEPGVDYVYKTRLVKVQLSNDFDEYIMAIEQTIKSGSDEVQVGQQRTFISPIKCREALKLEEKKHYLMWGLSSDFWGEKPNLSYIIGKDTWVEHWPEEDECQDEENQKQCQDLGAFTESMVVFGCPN",
  "assay": "ELISA on purified C3b or C3 (FIG. 8)",
  "procedure": "In another experiment, purified C3b or C3 were captured in microtiter plates using a polyclonal C3 antibody. Binding of S77 (A) or a polyclonal anti C3 antibody (B) to captured C3b or C3 was determined using a secondary HRPO-conjugated antibody. Color was developed with TMB (KPL), stopped in 2N H₂SO₄ and absorbance read at 450 nm.\nC3b ELISA for testing specificity of anti C3b antibody S77. Twenty-five μL of capture antibody (YW144.2.45.S77 Affinity Matured xC3/C3b (Genentech) 2 μg/ml) diluted in PBS was added to wells of a microtitre plate and incubated overnight at 4° C. The plate was washed 3× with wash buffer (PBS/0.05% Tween 20 (20× stock; Media Prep; Cat. A3355)). Fifty μL of block buffer was added to the wells and the plate incubated for 1-3 hours with gentle agitation (room temperature) and washed 3× with wash buffer. […] OD reading of plate was taken (450/630 nm). […]",
  "data": [
    {"binder": "B1", "values": [
      {"measurement": "binding result", "value": "no binding"}
    ]}
  ]
}
